In PMC2566858 (Nucleic Acids Research, 2008) one finds Kd data, which are given here for 1 molecule.

The target in series [1] is T1, rGyr_fl Y851F (full-length reverse gyrase) (Thermotoga maritima, UniProt O51934 1-1104, Y851F).
T1 sequence: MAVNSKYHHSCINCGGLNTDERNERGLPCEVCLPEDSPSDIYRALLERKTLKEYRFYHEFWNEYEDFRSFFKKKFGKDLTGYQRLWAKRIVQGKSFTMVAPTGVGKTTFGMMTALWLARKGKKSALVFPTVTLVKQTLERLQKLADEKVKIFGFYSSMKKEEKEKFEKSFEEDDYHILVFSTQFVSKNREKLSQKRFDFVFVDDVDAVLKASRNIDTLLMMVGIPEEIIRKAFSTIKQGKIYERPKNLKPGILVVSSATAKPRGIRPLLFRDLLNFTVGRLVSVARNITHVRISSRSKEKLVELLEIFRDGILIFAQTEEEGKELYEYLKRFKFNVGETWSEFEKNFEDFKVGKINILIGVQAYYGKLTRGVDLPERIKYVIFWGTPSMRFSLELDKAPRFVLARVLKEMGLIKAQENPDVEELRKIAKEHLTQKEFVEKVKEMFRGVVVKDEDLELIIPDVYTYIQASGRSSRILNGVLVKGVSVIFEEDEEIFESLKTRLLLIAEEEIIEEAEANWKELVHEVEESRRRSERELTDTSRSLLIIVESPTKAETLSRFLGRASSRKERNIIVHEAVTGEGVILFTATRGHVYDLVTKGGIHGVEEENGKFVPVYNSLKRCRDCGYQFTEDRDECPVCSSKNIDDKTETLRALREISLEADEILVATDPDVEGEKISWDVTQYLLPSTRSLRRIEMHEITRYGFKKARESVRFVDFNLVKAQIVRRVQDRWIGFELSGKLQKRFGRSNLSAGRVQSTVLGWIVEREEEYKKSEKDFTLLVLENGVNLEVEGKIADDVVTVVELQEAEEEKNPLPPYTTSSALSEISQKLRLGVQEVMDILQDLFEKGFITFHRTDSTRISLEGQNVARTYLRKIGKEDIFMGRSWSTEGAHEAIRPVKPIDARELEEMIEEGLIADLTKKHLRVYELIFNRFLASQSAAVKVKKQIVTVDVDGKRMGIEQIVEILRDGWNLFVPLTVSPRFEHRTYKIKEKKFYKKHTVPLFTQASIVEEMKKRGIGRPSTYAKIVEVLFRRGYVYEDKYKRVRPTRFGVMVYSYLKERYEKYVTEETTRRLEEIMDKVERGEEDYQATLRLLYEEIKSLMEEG
The series is described as follows: fluorescence anisotropy.

The target in series [2] is T2, rGyr_hel (reverse gyrase helicase-like domain) (Thermotoga maritima, UniProt O51934 59-541).
T2 sequence: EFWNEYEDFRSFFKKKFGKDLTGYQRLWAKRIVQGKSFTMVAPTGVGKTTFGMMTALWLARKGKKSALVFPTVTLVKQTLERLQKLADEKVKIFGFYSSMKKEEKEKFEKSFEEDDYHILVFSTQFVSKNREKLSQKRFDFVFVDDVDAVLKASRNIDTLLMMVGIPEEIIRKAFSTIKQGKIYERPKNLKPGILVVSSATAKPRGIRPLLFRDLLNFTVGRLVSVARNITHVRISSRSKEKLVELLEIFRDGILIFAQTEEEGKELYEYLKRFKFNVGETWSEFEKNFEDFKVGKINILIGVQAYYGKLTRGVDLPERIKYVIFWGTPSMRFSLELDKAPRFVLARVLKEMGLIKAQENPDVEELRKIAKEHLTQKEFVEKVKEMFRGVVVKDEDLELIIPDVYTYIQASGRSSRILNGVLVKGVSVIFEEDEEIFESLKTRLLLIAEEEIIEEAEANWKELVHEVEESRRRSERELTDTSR
In words: fluorescence anisotropy.

B1: 60-base ssDNA (ssDNA)
DNA: AAGCCAAGCTTCTAGAGTCAGCCCGTGATATTCATTACTTCTTATCCTAGGATCCCCGTT
Consider B1, for which the dissociation constant Kd came to 45 ± 2 nM in series [1] and 460 ± 30 nM in series [2].
